One series has as its target T1, RIG-IdeltaN;RIPLET (human;human, UniProt O95786;Q8IUD6 230-925;1-432, |).
T1 sequence 1: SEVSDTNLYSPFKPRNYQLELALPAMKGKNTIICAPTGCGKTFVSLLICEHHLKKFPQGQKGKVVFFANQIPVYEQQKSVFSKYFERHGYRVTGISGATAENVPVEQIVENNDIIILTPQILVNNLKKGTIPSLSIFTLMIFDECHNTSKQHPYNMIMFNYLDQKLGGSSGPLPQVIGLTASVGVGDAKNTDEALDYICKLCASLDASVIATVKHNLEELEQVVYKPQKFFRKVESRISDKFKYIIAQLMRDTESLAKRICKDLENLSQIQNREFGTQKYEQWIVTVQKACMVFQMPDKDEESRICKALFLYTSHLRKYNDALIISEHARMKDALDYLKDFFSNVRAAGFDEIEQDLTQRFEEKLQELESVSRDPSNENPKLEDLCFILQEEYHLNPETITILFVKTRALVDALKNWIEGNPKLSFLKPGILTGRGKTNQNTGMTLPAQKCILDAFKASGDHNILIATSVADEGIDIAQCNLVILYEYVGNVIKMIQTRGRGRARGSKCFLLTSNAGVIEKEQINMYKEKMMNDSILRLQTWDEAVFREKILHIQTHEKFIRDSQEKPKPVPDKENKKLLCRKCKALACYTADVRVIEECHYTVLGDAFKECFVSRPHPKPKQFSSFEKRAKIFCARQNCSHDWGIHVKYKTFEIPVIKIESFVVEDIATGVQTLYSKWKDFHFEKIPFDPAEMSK
T1 sequence 2: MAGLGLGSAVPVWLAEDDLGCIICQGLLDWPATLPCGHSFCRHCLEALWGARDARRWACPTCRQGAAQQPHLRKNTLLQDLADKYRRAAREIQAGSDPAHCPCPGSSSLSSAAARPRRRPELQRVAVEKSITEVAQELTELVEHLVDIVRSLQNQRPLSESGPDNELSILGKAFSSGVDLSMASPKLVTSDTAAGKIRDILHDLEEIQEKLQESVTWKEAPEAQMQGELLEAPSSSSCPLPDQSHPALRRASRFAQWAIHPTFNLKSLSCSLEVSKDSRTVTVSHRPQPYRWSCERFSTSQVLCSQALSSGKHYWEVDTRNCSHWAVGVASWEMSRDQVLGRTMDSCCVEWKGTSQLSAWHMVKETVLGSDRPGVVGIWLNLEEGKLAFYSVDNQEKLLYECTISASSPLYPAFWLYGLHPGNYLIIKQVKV
The experiment in a line: EMSA. Background: A gel shift assay detects complexes by their altered migration in electrophoresis.

For the next series, the target named is T2, RIPLET (human), Q8IUD6.
T2 chain: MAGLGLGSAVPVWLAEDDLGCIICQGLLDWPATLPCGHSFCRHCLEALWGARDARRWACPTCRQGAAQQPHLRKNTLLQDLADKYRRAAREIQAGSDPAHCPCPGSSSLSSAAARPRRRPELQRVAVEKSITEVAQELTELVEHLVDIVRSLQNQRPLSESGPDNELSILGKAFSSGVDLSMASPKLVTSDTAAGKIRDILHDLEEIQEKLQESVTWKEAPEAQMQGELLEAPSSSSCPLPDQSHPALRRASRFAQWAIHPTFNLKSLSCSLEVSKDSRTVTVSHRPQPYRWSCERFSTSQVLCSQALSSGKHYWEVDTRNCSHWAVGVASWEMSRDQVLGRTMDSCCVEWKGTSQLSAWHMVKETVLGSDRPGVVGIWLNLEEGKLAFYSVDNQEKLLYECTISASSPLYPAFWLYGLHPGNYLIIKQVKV
Briefly: SEC-MALS. As to conditions: remark: other sources report otherwise. (SEC sorts molecules by how far they enter the pores of the column.)

B1: 21 bp dsRNA (dsRNA)
RNA 1: GAGUCACGACGUUGUAAAAAA
RNA 2: UUUUUUACAACGUCGUGACUC
modifications: 5'ppp
Consider B1, for which, in the series with RIG-IdeltaN;RIPLET, the binding result is on record as “binds”.

B2: RIPLET, Q8IUD6 1-432 (enzyme)
chain: MAGLGLGSAVPVWLAEDDLGCIICQGLLDWPATLPCGHSFCRHCLEALWGARDARRWACPTCRQGAAQQPHLRKNTLLQDLADKYRRAAREIQAGSDPAHCPCPGSSSLSSAAARPRRRPELQRVAVEKSITEVAQELTELVEHLVDIVRSLQNQRPLSESGPDNELSILGKAFSSGVDLSMASPKLVTSDTAAGKIRDILHDLEEIQEKLQESVTWKEAPEAQMQGELLEAPSSSSCPLPDQSHPALRRASRFAQWAIHPTFNLKSLSCSLEVSKDSRTVTVSHRPQPYRWSCERFSTSQVLCSQALSSGKHYWEVDTRNCSHWAVGVASWEMSRDQVLGRTMDSCCVEWKGTSQLSAWHMVKETVLGSDRPGVVGIWLNLEEGKLAFYSVDNQEKLLYECTISASSPLYPAFWLYGLHPGNYLIIKQVKV
One may read the stoichiometry N as the number of molecules, sites or subunits per partner or assembly. The molecule B2 returned a stoichiometry N with RIPLET (human), Q8IUD6 of 2.

Source of the values: article PMC6525047.
